According to publication PMC12114846, “Interleukin-15Rα-Sushi-Fc Fusion Protein Co-Hitchhikes Interleukin-15 and Pheophorbide A for Cancer Photoimmunotherapy” (Pharmaceutics, 2025):

Target: IL-15 (Homo sapiens), P40933
Settings: Fc fusion; remark: other sources report otherwise

IL-15 (Homo sapiens), P40933, sequence (P40933 49-162): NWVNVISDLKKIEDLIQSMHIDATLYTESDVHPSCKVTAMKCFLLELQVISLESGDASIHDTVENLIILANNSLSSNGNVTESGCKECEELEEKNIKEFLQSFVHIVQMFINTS

Kd: 0.115 nM
B1: rIL-15Rα-Fc, Q13261 (protein)
chain: ITCPPPMSVEHADIWVKSYSLYSRERYICNSGFKRKAGTSSLTECVLNKATNVAHWTTPSLKCIRDPALVHQRPAPPSTVTTAGVTPQPESLSPSGKEPAASSPSSNNTAATTAAIVPGSQLMPSKSPSTGTTEISSHESSHGTPSQTTAKNWELTASASHQPPGVYPQGHSDTT
